Measured values reported in patent publication US20260007714A1 (TEN PEAKS, published 2026).

B1: SEQ ID NO: 2 (TKGPSVFPL), synthetic peptide derived from the infliximab heavy chain (peptide)
peptide: TKGPSVFPL
notes: Synthetic peptide (Genscript) derived from infliximab; also called 3901_tkg
B2: SEQ ID NO: 1 (THQGLSSPV), synthetic peptide derived from the infliximab light chain (peptide)
peptide: THQGLSSPV
notes: Synthetic peptide (Genscript) derived from infliximab; also called 3901_thq

Key:
HLA-B*15:01 = target: T1, HLA-B*15:01 (human); test: refolding of HLA with synthetic peptide, size-exclusion chromatography (FIG. 4B)
T1 construct: the method paragraph describes expression only for HLA-B*39:01

HLA-B*57:01 = target: T2, HLA-B*57:01 (human); test: refolding of HLA with synthetic peptide, size-exclusion chromatography (FIG. 4A)
T2 construct: the method paragraph describes expression only for HLA-B*39:01; also called HLA-B*057:01

| Binder | binding result (HLA-B*15:01) | binding result (HLA-B*57:01) |
| --- | --- | --- |
| B1 | no binding | no binding |
| B2 | no binding | no binding |
